Measurements published in the supplement of paper PMC10567573.

B1: VENTX (parent)
chain: VFQHHQYLSPLERKRLAREMQLSE

Variants of: B1
Assay: protein stability index of a GFP-peptide fusion (GPS, HEK-293T) (PSI 1-6); higher = more stable
Conditions: c terminus: a fixed tail appended
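Also: lentivirally expressed fusions sorted by FACS into six bins by GFP to DsRed ratio, PSI derived from sequencing read proportions per bin multiplied by bin number.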

Row | Variant | protein stability index
1 | VFQHHQYLSPLERKREAREMQLSE [L16E] | 3.1
2 | VFQHHQYLSPLERKRYAREMQLSE [L16Y] | 2.31
3 | VFQHHQYLSPLERKRHAREMQLSE [L16H] | 2.82
4 | VFQHHQYLSPLERKRAAREMQLSE [L16A] | 2
5 | VFQHHQYLSPLERKRTAREMQLSE [L16T] | 2.71
6 | VFQHHQYLSPLERKRRAREMQLSE [L16R] | 2.33
7 | VFQHHQYLSPLERKRQAREMQLSE [L16Q] | 2.7
8 | VFQHHQYLSPLERKRWAREMQLSE [L16W] | 2.01
9 | VFQHHQYLSPLERKRIAREMQLSE [L16I] | 2.71
10 | VFQHHQYLSPLERKRKAREMQLSE [L16K] | 2.52
11 | VFQHHQYLSPLERKRDAREMQLSE [L16D] | 3.03
12 | VFQHHQYLSPLERKRFAREMQLSE [L16F] | 2.28
13 | VFQHHQYLSPLERKRVAREMQLSE [L16V] | 2.75
14 | VFQHHQYLSPLERKRSAREMQLSE [L16S] | 2.8
15 | VFQHHQYLSPLERKRNAREMQLSE [L16N] | 2.92
16 | VFQHHQYLSPLERKRMAREMQLSE [L16M] | 2.48
17 | VFQHHQYLSPLERKRCAREMQLSE [L16C] | 2.62
18 | VFQHHQYLSPLERKRPAREMQLSE [L16P] | 2.78
19 | VFQHHQYLSPLERKRGAREMQLSE [L16G] | 2.9
20 | VFQHHQYLSPLERCRLAREMQLSE [K14C] | 2.98
21 | VFQHHQYLSPLERHRLAREMQLSE [K14H] | 1.97
22 | VFQHHQYLSPLERFRLAREMQLSE [K14F] | 1.75
23 | VFQHHQYLSPLERRRLAREMQLSE [K14R] | 2.67
24 | VFQHHQYLSPLERTRLAREMQLSE [K14T] | 2.58

Row | Variant | protein stability index
25 | VFQHHQYLSPLERGRLAREMQLSE [K14G] | 2.39
26 | VFQHHQYLSPLERSRLAREMQLSE [K14S] | 2.81
27 | VFQHHQYLSPLERQRLAREMQLSE [K14Q] | 2.12
28 | VFQHHQYLSPLERYRLAREMQLSE [K14Y] | 2.58
29 | VFQHHQYLSPLERARLAREMQLSE [K14A] | 2.67
30 | VFQHHQYLSPLERERLAREMQLSE [K14E] | 3.3
31 | VFQHHQYLSPLERIRLAREMQLSE [K14I] | 2.88
32 | VFQHHQYLSPLERMRLAREMQLSE [K14M] | 3.11
33 | VFQHHQYLSPLERPRLAREMQLSE [K14P] | 2.4
34 | VFQHHQYLSPLERWRLAREMQLSE [K14W] | 1.81
35 | VFQHHQYLSPLERLRLAREMQLSE [K14L] | 2.19
36 | VFQHHQYLSPLERVRLAREMQLSE [K14V] | 2.63
37 | VFQHHQYLSPLERDRLAREMQLSE [K14D] | 3.01
38 | VFQHHQYLSPLERNRLAREMQLSE [K14N] | 2.83
39 | VFQHHQYLSPLERKTLAREMQLSE [R15T] | 2.97
40 | VFQHHQYLSPLERKDLAREMQLSE [R15D] | 2.6
41 | VFQHHQYLSPLERKLLAREMQLSE [R15L] | 2.02
42 | VFQHHQYLSPLERKQLAREMQLSE [R15Q] | 2.57
43 | VFQHHQYLSPLERKKLAREMQLSE [R15K] | 2.44
44 | VFQHHQYLSPLERKCLAREMQLSE [R15C] | 1.99
45 | VFQHHQYLSPLERKGLAREMQLSE [R15G] | 2.6
46 | VFQHHQYLSPLERKFLAREMQLSE [R15F] | 1.72
47 | VFQHHQYLSPLERKWLAREMQLSE [R15W] | 2.21
48 | VFQHHQYLSPLERKPLAREMQLSE [R15P] | 2.36

Row | Variant | protein stability index
49 | VFQHHQYLSPLERKVLAREMQLSE [R15V] | 1.92
50 | VFQHHQYLSPLERKSLAREMQLSE [R15S] | 1.97
51 | VFQHHQYLSPLERKYLAREMQLSE [R15Y] | 2.04
52 | VFQHHQYLSPLERKNLAREMQLSE [R15N] | 2.85
53 | VFQHHQYLSPLERKILAREMQLSE [R15I] | 2.09
54 | VFQHHQYLSPLERKHLAREMQLSE [R15H] | 2.54
55 | VFQHHQYLSPLERKELAREMQLSE [R15E] | 2.41
56 | VFQHHQYLSPLERKMLAREMQLSE [R15M] | 2.02
57 | VFQHHQYLSPLERKALAREMQLSE [R15A] | 1.79
58 | VFQHHQYLSPLERKRLPREMQLSE [A17P] | 2.98
59 | VFQHHQYLSPLERKRLQREMQLSE [A17Q] | 2.59
60 | VFQHHQYLSPLERKRLMREMQLSE [A17M] | 2.32
61 | VFQHHQYLSPLERKRLSREMQLSE [A17S] | 3.1
62 | VFQHHQYLSPLERKRLRREMQLSE [A17R] | 2.98
63 | VFQHHQYLSPLERKRLCREMQLSE [A17C] | 1.84
64 | VFQHHQYLSPLERKRLIREMQLSE [A17I] | 2.36
65 | VFQHHQYLSPLERKRLVREMQLSE [A17V] | 2.14
66 | VFQHHQYLSPLERKRLHREMQLSE [A17H] | 2.24
67 | VFQHHQYLSPLERKRLEREMQLSE [A17E] | 2.93
68 | VFQHHQYLSPLERKRLLREMQLSE [A17L] | 2.79
69 | VFQHHQYLSPLERKRLDREMQLSE [A17D] | 2.45
70 | VFQHHQYLSPLERKRLKREMQLSE [A17K] | 2.75
71 | VFQHHQYLSPLERKRLTREMQLSE [A17T] | 2.97
72 | VFQHHQYLSPLERKRLGREMQLSE [A17G] | 2.69

Row | Variant | protein stability index
73 | VFQHHQYLSPLERKRLWREMQLSE [A17W] | 2.24
74 | VFQHHQYLSPLERKRLNREMQLSE [A17N] | 2.38
75 | VFQHHQYLSPLERKRLFREMQLSE [A17F] | 2.5
76 | VFQHHQYLSPLEAKRLAREMQLSE [R13A] | 2.32
77 | VFQHHQYLSPLEVKRLAREMQLSE [R13V] | 2.4
78 | VFQHHQYLSPLETKRLAREMQLSE [R13T] | 2.32
79 | VFQHHQYLSPLECKRLAREMQLSE [R13C] | 2.45
80 | VFQHHQYLSPLEDKRLAREMQLSE [R13D] | 2.56
81 | VFQHHQYLSPLEHKRLAREMQLSE [R13H] | 2.07
82 | VFQHHQYLSPLEQKRLAREMQLSE [R13Q] | 2.94
83 | VFQHHQYLSPLEYKRLAREMQLSE [R13Y] | 1.77
84 | VFQHHQYLSPLEGKRLAREMQLSE [R13G] | 1.83
85 | VFQHHQYLSPLEKKRLAREMQLSE [R13K] | 2.62
86 | VFQHHQYLSPLESKRLAREMQLSE [R13S] | 2.44
87 | VFQHHQYLSPLEEKRLAREMQLSE [R13E] | 2.44
88 | VFQHHQYLSPLEIKRLAREMQLSE [R13I] | 2.26
89 | VFQHHQYLSPLEWKRLAREMQLSE [R13W] | 1.87
90 | VFQHHQYLSPLELKRLAREMQLSE [R13L] | 2.66
91 | VFQHHQYLSPLENKRLAREMQLSE [R13N] | 3.31
92 | VFQHHQYLSPLEFKRLAREMQLSE [R13F] | 1.92
93 | VFQHHQYLSPLEMKRLAREMQLSE [R13M] | 2.43
94 | VFQHHQYLSPLEPKRLAREMQLSE [R13P] | 2.06
